Values of other authors in patent US12037378B2, “Variant CD58 domains and uses thereof” (NOVARTIS AG, priority 2019, dated 2024).

Target: T1, CD2 (Homo sapiens, UniProt P06729)
T1 sequence (P06729 25-351): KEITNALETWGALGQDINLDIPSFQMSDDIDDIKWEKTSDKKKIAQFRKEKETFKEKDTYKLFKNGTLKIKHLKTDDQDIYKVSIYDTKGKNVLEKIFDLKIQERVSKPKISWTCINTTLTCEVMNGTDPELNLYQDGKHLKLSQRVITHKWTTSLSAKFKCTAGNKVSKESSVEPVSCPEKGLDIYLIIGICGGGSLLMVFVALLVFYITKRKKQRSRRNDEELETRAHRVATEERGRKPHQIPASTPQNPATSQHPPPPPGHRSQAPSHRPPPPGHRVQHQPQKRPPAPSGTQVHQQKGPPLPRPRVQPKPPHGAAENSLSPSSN
Details: Wang et al., 1999, Cell 97:791-803; cited from earlier work

B1: CD58-6: Amino acids 30-123 (WT) Ig-V like domain of CD58, SEQ ID NO:6 (protein, listed as Homo sapiens)
chain: SQQIYGVVYGNVTFHVPSNVPLKEVLWKKQKDKVAELENSEFRAFSSFKNRVYLDTVSGSLTIYNLTSSDEDEYEMESPNITDTMKFFLYVLES
binding to CD2: sufficient for binding to CD2
